Patent US10197572B2, “Method and kit for detection of deltanoid-resistant leukemia cells and antibody for use therein” (WROCLAWSKIE CENTRUM BADAN EIT+ SP. Z O.O., priority 2014, dated 2019)

How the values were obtained:
KG1 cells [1] = assay: expression of differentiation antigens CD11b and CD14 after exposure to deltanoids; format: cell-based; conditions: FIG. 4b
Text: According to the invention, cells from the KG1 acute myeloid leukemia line were used as a model for cells resistant to differentiation mediated by deltanoids. […] Effect on clonal proliferation and differentiation of human myeloid cells. J Clin Invest, 1986. 78: p. […] J Steroid Biochem Mol Biol, 2012. 132(3-5): p. 220-6]. The HL60 acute myeloid leukemia cell line, used in laboratories engaged in studying deltanoid-mediated differentiation, served as a sensitive line model [Marcinkowska, E. et al., Cell differentiating and anti-proliferative activity of side-chain modified analogs of 1,25-dihydroxyvitamin D3. J Steroid Biochem Mol Biol, 1998. 67(1): p. 71-8; Gallagher, R. et al., Characterization of the continuous, differentiating myeloid cell line (HL-60) from a patient with acute promyelocytic leukemia. Blood, 1979. 54: p. 713-733; Brackman, D. et al., Expression of cell surface antigens during the differentiation of HL-60 cells induced by 1,25-dihydroxyvitamin D3, retinoic acid and DMSO. Leuk Res, 1995. 19: p. 57-64].
Studying susceptibility to differentiation mediated by deltanoids is done in a number of ways. One of these is observing the appearance of antigens typical for macrophages on the surface of deltanoid (calcitriol or analogs) treated cells, serving important functions for the macrophages. […]

KG1-CtrA cells [2] = assay: as above; format: cell-based; conditions: unpublished data
HL60 cells [3] = conditions: exposure even to low concentrations; cited from earlier work
KG1 cells [4] = conditions: exposure even to high concentrations; cited from earlier work
HL60 cells [5] = assay: flow cytometry, direct labeling with FITC-labeled scFv; format: binding
Description: (§1) FITC-labeled 6B and 8F antibodies were used to label the HL60, KG1 and KG1-CtrA cells. To this end, 5×10^5 cells of each were suspended in 50 μl of PBS buffer without calcium and magnesium ions with 0.1% BSA. Either 1 μg of the 8F/FITC protein or 1 μg of the 6B/FITC protein were added to each suspension. Samples were incubated for 45 minutes in darkness on ice, then washed with PBS without calcium and magnesium ions, supplemented with 0.1% BSA and subsequently fluorescence of the samples was read by flow cytometry.

KG1 cells [6] = assay: as above; format: binding
Description: as §1

HL60 cells [7] = assay: flow cytometry, sandwich labeling with scFv and FITC-conjugated secondary antibody; format: binding; conditions: HL60 + 6B + anti-c-myc-FITC, sandwich method
Description: (§2) As a confirmation of the ELISA assays, the flow cytometry analysis was conducted, wherein the cells were labeled with a FITC-conjugated antibody in an scFv format (direct labeling) or with an antibody in an scFv format and then with a FITC-conjugated secondary antibody recognizing the former (sandwich method).
(§3) Optimal dilution of the secondary antibody in the sandwich method is 1:100 or 1:50 (10^5 cells).

KG1 cells [8] = assay: as above; format: binding; conditions: KG1 + 6B + anti-c-myc-FITC, sandwich method
Description: as §2, §3

KG1 cells [9] = assay: library screening with the ELISA method on whole cells; format: binding; conditions: FIG. 1, background subtracted
Text: The OD450-OD650 signal informs of the binding strength of the tested antibody to KG1 cells (more particularly: of the amount of the antibody bound to the antigen, being then recognized by a secondary HRP-conjugated antibody). Background signal, namely OD450-OD650 for the control with only the secondary antibody, was then subtracted from all measurements. The numbers and letters indicate the position on a 96-well plate.
(§4) Screening the library in order to find antibodies in an scFv format, specifically interacting with the KG1 line, was done based on ELISA according to the Tomlinson protocol (phages with envelope protein fused with scFv after expression on a 96-well plate served as the primary antibody for ELISA). Again, the cells were not immobilized on a Nunc U plate but only centrifuged in mild conditions. The identified positive clones were expressed in the form of solubilized scFv (without fusion with a phage envelope protein) and purified on a protein A resin, and then tested on KG1 cells and HL60 cells obtaining desired results (specificity against KG1 line) (FIG. 1).

HL60 cells [10] = assay: ELISA on whole cells; format: binding
Text: as §4
At the same time, it was observed that the HL60 cells spontaneously convert the substrate for HRP conjugated with the secondary antibody, giving results that need to be analyzed with caution. To this end, the reaction for HL60 was stopped sooner but the results required additional confirmation with a different method anyway.

KG1-CtrA cells [11] = assay: flow cytometry, direct labeling with FITC-labeled scFv; format: binding; conditions: 1 μg 6B/FITC, 5×10^5 KG1-CtrA cells, FIG. 5
Description: as §1

C=C1/C(=C\C=C2/CCC[C@]3(C)[C@@H]([C@H](C)CCCC(C)(C)O)CC[C@@H]23)C[C@@H](O)C[C@@H]1O [calcitriol]
differentiation after exposure (KG1 cells [1]): lack of differentiation
expression of differentiation antigens CD11 b and CD14 (KG1-CtrA cells [2]): significantly increase expression
expression of CD14 and CD11b antigens (HL60 cells [3]): significantly increase expression
CD11 b and CD14 expression (KG1 cells [4]): do not alter

B1: 8F: scFv of SEQ ID NO: 2, negative control, same framework as 6B, differing only in hypervariable fragments (protein)
scFv: EVQLLESGGGLVQPGGSLRLSCAASGFTFSSYGMSWVRQAPGKGLEWVSWIDASGTRTQYADSVKGRFTISRDNSKNTLYLQMNSLRAEDTAVYYCAKLFRSFDYWGQGTLVTVSSGGGGSGGGGSGGGGSTDIQMTQSPSSLSASVGDRVTITCRASQSISSYLNWYQQKPGKAPKLLIYRASSLQSGVPSRFSGSGSGTDFTLTISSLQPEDFATYYCQQGQTLPITFGQGTKVEIKRAAA
modifications: antibody 8F
recognition of deltanoid-sensitive leukemia cells (HL60 cells [5]): not recognizing
recognition of deltanoid-resistant leukemia cells (KG1 cells [6]): not recognizing

B2: 6B: scFv of SEQ ID NO: 1, which specifically recognizes KG1 cells line, obtained by phage display (protein)
scFv: EVQLLESGGGLVQPGGSLRLSCAASGFTFSSYGMSWVRQAPGKGLEWVSTIRTAGRATEYADSVKGRFTISRDNSKNTLYLQMNSLRAEDTAVYYCAKSPQTFDYWGQGTLVTVSSGGGGSGGGGSGGGGSTDIQMTQSPSSLSASVGDRVTITCRASQSISSYLNWYQQKPGKAPKLLIYRASRLQSGVPSRFSGSGSGTDFTLTISSLQPEDFATYYCQQRLTIPITFGQGTKVEIKRAAA
modifications: antibody 6B
FITC+: GeoMean (HL60 cells [7]): 9.8
FITC+: mean (HL60 cells [7]): 10.7
FITC+: median (HL60 cells [7]): 8.9
FITC+: % Vis (KG1 cells [8]): 100.0%
FITC+: GeoMean (KG1 cells [8]): 28.1
FITC+: mean (KG1 cells [8]): 29.4
FITC+: median (KG1 cells [8]): 28.4
OD450-OD650 signal (binding strength to KG1 cells) (KG1 cells [9]): clearly prominent
ELISA signal in comparison to control with non-specific scFv (HL60 cells [10]): no increased signal
presence of the 6B-binding antigen (KG1-CtrA cells [11]): lost
